{"source": "patent US6787359B1", "about": "“Gene transfer methods” (Takara Shuzo Co., Ltd., priority 1998, dated 2004)", "system": "mouse leukemia L1210 cells", "assay": "Gene transfer with PM5neo virus on coated plates, G418-resistant cells by WST-1 absorbance", "assay_type": "cell-based", "settings": "for Absorbance difference (450 nm-650 nm), G418-resistant cells: Experiment 2", "procedure": "50 μl of […] solution of H-271, H-296, C-274, CH-271, CH-296, ColV, human basic fibroblast growth factor (bFGF; Progen), tenascin (Gibco) or epidermal growth factor (EGF; Takara Shuzo), or 50 μl of 2% bovine serum albumin (BSA, Sigma) was added to each well of a 96-well non-treated microplate for cell culture (Falcon). The plate was allowed to stand at 4° C. overnight and then washed twice with phosphate buffered saline (PBS; Roman Kogyo). Alternatively, after the plate was treated as described above, 0.1 ml of 4 mg/ml solution of 1-ethyl-3-dimethylaminopropylcarbodiimide hydrochloride (Sigma) in sterile pure water was dispensed to each well. The reaction was allowed to proceed at 37° C. for 2 hours. The plate was washed extensively with pure water to prepare a carbodiimide-treated plate. These plates were stored at 4° C. until viral infection experiments were conducted.\n10^4 mouse leukemia L1210 cells (ATCC CCL-219), which had been grown in RPMI 1640 medium (Bio Whittaker) supplemented with 10% FCS, 50 units/ml penicillin and 50 μg/ml streptomycin, and 50 μl of PM5neo virus supernatant (10^4 cfu/ml) were added to the well of the microplate. After the plate was incubated for 24 hours, the medium was changed to the same medium containing G418 (Gibco) at a final concentration of 0.75 mg/ml, and the plate was then incubated for additional 48 hours. G418-resistance cells were assessed according to the method as described in S. Kim et al. [Gene Therapy, 3:1018-1020 (1996)] with a partial modification in which color developed using Premix WST-1 reagent (Takara Shuzo) was measured as absorbance at 450 nm. […] Absorbance at 450 nm and 650 nm was then measured using a microplate reader, and the difference (450 nm-650 nm) was calculated. The value obtained using a plate coated with 2% BSA without carbodiimide treatment was defined as background.", "data": [{"molecule": "EGF: epidermal growth factor (Takara Shuzo) (protein, UniProt P01133 23-1207, looked up, Pro-epidermal growth factor) Pro-epidermal growth factor: PQHWSCPEGTLAGNGNSTCVGPAPFLIFSHGNSIFRIDTEGTNYEQLVVDAGVSVIMDFHYNEKRIYWVDLERQLLQRVFLNGSRQERVCNIEKNVSGMAINWINEEVIWSNQQEGIITVTDMKGNNSHILLSALKYPANVAVDPVERFIFWSSEVAGSLYRADLDGVGVKALLETSEKITAVSLDVLDKRLFWIQYNREGSNSLICSCDYDGGSVHISKHPTQHNLFAMSLFGDRIFYSTWKMKTIWIANKHTGKDMVRINLHSSFVPLGELKVVHPLAQPKAEDDTWEPEQKLCKLRKGNCSSTVCGQDLQSHLCMCAEGYALSRDRKYCEDVNECAFWNHGCTLGCKNTPGSYYCTCPVGFVLLPDGKRCHQLVSCPRNVSECSHDCVLTSEGPLCFCPEGSVLERDGKTCSGCSSPDNGGCSQLCVPLSPVSWECDCFPGYDLQLDEKSCAASGPQPFLLFANSQDIRHMHFDGTDYGTLLSQQMGMVYALDHDPVENKIYFAHTALKWIERANMDGSQRERLIEEGVDVPEGLAVDWIGRRFYWTDRGKSLIGRSDLNGKRSKIITKENISQPRGIAVHPMAKRLFWTDTGINPRIESSSLQGLGRLVIASSDLIWPSGITIDFLTDKLYWCDAKQSVIEMANLDGSKRRRLTQNDVGHPFAVAVFEDYVWFSDWAMPSVMRVNKRTGKDRVRLQGSMLKPSSLVVVHPLAKPGADPCLYQNGGCEHICKKRLGTAWCSCREGFMKASDGKTCLALDGHQLLAGGEVDLKNQVTPLDILSKTRVSEDNITESQHMLVAEIMVSDQDDCAPVGCSMYARCISEGEDATCQCLKGFAGDGKLCSDIDECEMGVPVCPPASSKCINTEGGYVCRCSEGYQGDGIHCLDIDECQLGEHSCGENASCTNTEGGYTCMCAGRLSEPGLICPDSTPPPHLREDDHHYSVRNSDSECPLSHDGYCLHDGVCMYIEALDKYACNCVVGYIGERCQYRDLKWWELRHAGHGQQQKVIVVAVCVVVLVMLLLLSLWGAHYYRTQKLLSKNPKNPYEESSRDVRSRRPADTEDGMSSCPQPWFVVIKEHQDLKNGGQPVAGEDGQAADGSMQPTSWRQEPQLCGMGTEQGCWIPVSSDKGSCPQVMERSFHMPSYGTQTLEGGVEKPHSLLSANPLWQQRALDPPHQMELTQ", "values": [{"measurement": "Absorbance difference (450 nm-650 nm), G418-resistant cells", "setting": "plate treated with carbodiimide", "value": "0.077 ± 0.038"}, {"measurement": "Absorbance difference (450 nm-650 nm), G418-resistant cells", "setting": "plate untreated", "value": "0.030 ± 0.021"}, {"measurement": "Appearance of G418-resistant cells (in words)", "setting": "carbodiimide treatment carried out", "value": "increased"}]}]}
